The text below walks through data of US20170369935.

For the data set, the system named is T1, peptide LPETGGG bridging variable regions 4 and 5 (var 4-LPETGGG-var 5).
T1 sequence: LPETGGG

For the substance sortase (Chen et. al, 2011), the “kligation (sortase-catalyzed transpeptidation, loop opening on gel, room temperature)” value is reported as “kligation=11±1.3 min”.
